For the experiment, the target named is SARS-CoV-2 S (Wuhan)-His (1–1273 aa) expressed in HEK293T cells (SARS-CoV-2 Wuhan, UniProt P0DTC2). Briefly: western blot. As to conditions: one partner purified.

B1: anti-S2 monoclonal antibody 4A5 (antibody, V domains shown)
VH: QVKLEQSGPGILQPSQTLSLTCSFSGFSLSTSGMGVSWIRQSSGKGLEWLTHIYWDDDKRYNPSLKSRLTISKDTSRNQVFLKITSVDTADTATYYCARRRMITGLYYAMDYWGQGTSVTVSS
VL: DIVMTQSTLSLPVSFGDQVSISCRSSQSLANSYGITYLSWYLHKPGQSPQLLIYGISNRFSGVPDRFSGSGSGTDFTLKISTIKPEDLGMYYCLQGTHQPWTFGGGTKLEIK
For the molecule B1, the binding result was “binds”.

For the origin of these results see article PMC10749193 (Frontiers in Immunology, 2023).
